Results on two molecules are retold here after CN101415728A.

In the assay the target is human IGF-1R expressed on cells (human). Kind of assay: cell-based or functional assay.

B1: M14-C03.G4.P.agly (antibody, part only; not given: constant regions, human IgG4, part only)
heavy, part: EVQLLESGGGLVQPGGSLRLSCAASGFTFSKYMMSWVRQAPGKGLEWVSYISPSGGLTWYADSVKGRFTISRDNSKNTLYLQMNSLRAEDTAVYYCARDGARGYGMDVWGQGTTVTVSS
light, part: DIQMTQSPATLSLSPGERATLSCRASQSVSSYLAWYQQKPGQAPRLLIYDASNRATGIPARFSGSGSGTDFTLTISSLEPEDFAVYYCQQRSNWPPEVTFGPGTKVDIK
In the case of B1, the inhibition of IGF-1- and IGF-2-mediated IGF-1R phosphorylation in MCF-7 cells, EC50 is under 1 nM.

B2: M13-C06.G4.P.agly (antibody, part only; not given: constant regions, part only)
heavy, part: EVQLLESGGGLVQPGGSLRLSCAASGFTFSIYRMQWVRQAPGKGLEWVSGISPSGGTTWYADSVKGRFTISRDNSKNTLYLQMNSLRAEDTAVYYCARWSGGSGYAFDIWGQGTMVTVSS
light, part: DIQMTQSPLSLSASVGDRVTITCQASRDIRNYLNWYQQKPGKAPKLLIYDASSLQTGVPSRFGGSGSGTDFSFTIGSLQPEDIATYYCQQFDSLPHTFGQGTKLEIK
B2 displayed an inhibition of IGF-1- and IGF-2-mediated IGF-1R phosphorylation in MCF-7 cells, EC50 of under 1 nM.
